Laboratory results reported in article PMC13138344, “Embryonic stem cell factors DPPA2/4 amplify active H3K4me3–H2AK119ub chromatin domains in non-small cell lung cancer” (Genes & Development, 2026).

T1: developmental pluripotency-associated 2 (DPPA2) (human (endogenous in NCI-H661), UniProt Q7Z7J5 1-298)
T1 construct: DPPA2, human, endogenous in NCI-H661 non-small cell lung cancer cells; source: endogenous, NCI-H661 whole-cell lysate (IP-MS); endogenous, NCI-H661 double-cross-linked chromatin (RIME)
T1 sequence (looked up): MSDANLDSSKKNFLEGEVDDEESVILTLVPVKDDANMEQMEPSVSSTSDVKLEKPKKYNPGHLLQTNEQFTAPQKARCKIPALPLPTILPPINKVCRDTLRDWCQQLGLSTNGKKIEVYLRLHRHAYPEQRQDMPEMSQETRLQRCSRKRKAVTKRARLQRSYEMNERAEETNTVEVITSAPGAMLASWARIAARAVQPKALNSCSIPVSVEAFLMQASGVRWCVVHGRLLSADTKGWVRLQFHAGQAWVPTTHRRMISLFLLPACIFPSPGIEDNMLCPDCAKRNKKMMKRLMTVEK

B1: recombinant DPPA2-Myc/FLAG protein (natural protein, human, UniProt Q7Z7J5 1-298, looked up)
chain: T1 sequence (looked up)
notes: DPPA2, human, recombinant; The construct is named only in the EMSA legend; source: recombinant
B2: developmental pluripotency-associated 4 (DPPA4) (natural protein, human (endogenous in NCI-H661), UniProt Q7L190 1-304, looked up)
chain: MLRGSASSTSMEKAKGKEWTSTEKSREEDQQASNQPNSIALPGTSAKRTKEKMSIKGSKVLCPKKKAEHTDNPRPQKKIPIPPLPSKLPPVNLIHRDILRAWCQQLKLSSKGQKLDAYKRLCAFAYPNQKDFPSTAKEAKIRKSLQKKLKVEKGETSLQSSETHPPEVALPPVGEPPALENSTALLEGVNTVVVTTSAPEALLASWARISARARTPEAVESPQEASGVRWCVVHGKSLPADTDGWVHLQFHAGQAWVPEKQEGRVSALFLLPASNFPPPHLEDNMLCPKCVHRNKVLIKSLQWE
notes: DPPA4, human, endogenous in NCI-H661 non-small cell lung cancer cells; source: endogenous, NCI-H661 whole-cell lysate (IP-MS); endogenous, NCI-H661 double-cross-linked chromatin (RIME)
B3: recombinant His-DPPA4 protein (natural protein, human, UniProt Q7L190 1-304, looked up)
chain: B2 chain
notes: DPPA4, human, recombinant; The construct is named only in the EMSA legend; also called recombinant DPPA4; source: recombinant

Columns and labels:
[1] = biological target: the molecule itself; test: mass photometry; recombinant DPPA2 and DPPA4 in vitro, each on its own and together
[2] = biological target: B3; test: as above; settings: both partners purified
[3] = biological target: T1, developmental pluripotency-associated 2 …; test: affinity purification with mass spectrometry; IP of endogenous DPPA2 or DPPA4 from NCI-H661 whole-cell lysates, species-matched IgG IP control, label-free quantitation, n = 4 per condition; settings: partners not purified

| binding result [2] | ratio between DPPA2 and DPPA4 (iBAQ) in the DPPA2 IP [3] | Binder | binding result [1] |
| --- | --- | --- | --- |
| binds |  | B1 | binds |
|  | > 1 | B2 |  |
|  |  | B3 | binds |
